This passage reports stoichiometry N results from paper PMC6282176.

The target of this experiment is C-terminally truncated fragment of DdSkp1 (residues 1–122) (Dictyostelium discoideum) (UniProt P52285). The experiment in a line: AUC.

Regarding “C-terminally truncated fragment of DdSkp1 (residues 1–122) (from UniProt P52285 1-122) (domain or fragment)”, the stoichiometry N – broadly, the number of molecules, sites or subunits per partner or assembly – turned out to be 2.
